Here are results for 15 molecules from patent publication US20220362394A1 (SUTRO BIOPHARMA, published 2022).

Changes are numbered by the printed parent chain.

Sequences and labels used below:
T1: human BCMA on cells (human, UniProt Q02223 1-184)
T1 construct: also called hBCMA; BCMA on NCI-H929, ARP-1, OPM-2, U266B1, MM.1S, RPMI-8226 cells
T1 sequence: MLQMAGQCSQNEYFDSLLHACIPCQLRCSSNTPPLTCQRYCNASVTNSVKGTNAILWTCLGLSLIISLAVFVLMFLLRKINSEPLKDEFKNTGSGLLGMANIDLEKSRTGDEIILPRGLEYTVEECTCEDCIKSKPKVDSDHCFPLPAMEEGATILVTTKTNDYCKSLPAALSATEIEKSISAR

T2: human BCMA-Fc (human, UniProt Q02223 1-54)
T2 construct: Bought from R&D Systems; also called huBCMA-Fc; not shown: Fc part not described
T2 sequence: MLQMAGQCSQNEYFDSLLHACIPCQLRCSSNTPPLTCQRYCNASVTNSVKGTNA

B1: 9A8 (antibody, V domains shown)
VH: AVTLDESGGGLQTPGGTLSLVCKASGFTFSSFNMFWVRQAPGKGLEWVAYIRNDGNSASYGPAVKGRATISRDNGQSTVRLQLNNLRAEDTATYYCAKTTCIGSGGCIDTWGHGTEVIVSS
VL: ALTQPSSVSANPGETVKITCSGGSSDYGWFQQKSPGSAPVTVIYSNNQRPSGIPSRFSGSKSGSTGTLTITGVQAEDEAIYYCANVDYTDDVFGAGTTLTVL
notes: Chicken HybriFree-derived antibody; also called Antibody 30
B2: 10G5 (antibody, V domains shown)
VH: B1 VH with T17V, R52S, N56S, A58T, Y95F
VL: B1 VL with S24N, S25Y, F30Y, V42L, S45Y, Q48K, G52D, Y88S
notes: Chicken HybriFree-derived antibody; also called Antibody 31
B3: 2137-C07 (antibody, V domains shown)
VH: EVQLVESGGGLVQPGGSLRLSCAASGFNISGSGIHWVRQAPGKGLEWVGFINPAGGYTDYADSVKGRFTISADTSKNTAYLQMNSLRAEDTAVYYCARDYVYQYWTYVLDYWGQGTLVTVSS
VL: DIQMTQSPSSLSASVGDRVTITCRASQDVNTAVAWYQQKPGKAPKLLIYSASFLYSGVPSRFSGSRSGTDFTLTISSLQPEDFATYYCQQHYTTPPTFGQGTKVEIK
notes: IgG1 with His/FLAG tag, cell-free expressed, trastuzumab LC; also called Antibody 1
B4: 2265-F02 (antibody, V domains shown)
VH: B3 VH with G31A, S32P, V101I, Y102R
VL: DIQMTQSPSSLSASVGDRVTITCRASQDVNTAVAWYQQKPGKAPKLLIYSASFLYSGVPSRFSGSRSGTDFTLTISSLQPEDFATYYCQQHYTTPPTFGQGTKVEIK
notes: also called Antibody 4; Antibody 2265-F02
B5: 2265-B06 (antibody, V domains shown)
VH: B3 VH with S30R, G31V, Y102Q, Q103A
VL: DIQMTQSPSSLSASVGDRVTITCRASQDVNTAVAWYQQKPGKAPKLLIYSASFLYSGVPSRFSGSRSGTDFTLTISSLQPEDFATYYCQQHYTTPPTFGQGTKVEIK
notes: also called Antibody 5
B6: 2265-A09 (antibody, V domains shown)
VH: B3 VH with S30I, S32P, Q103N
VL: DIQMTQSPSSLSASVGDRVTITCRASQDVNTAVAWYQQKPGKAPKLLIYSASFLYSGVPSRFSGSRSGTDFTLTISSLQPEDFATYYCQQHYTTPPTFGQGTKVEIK
notes: also called Antibody 6
B7: 2265-E02 (antibody, V domains shown)
VH: B3 VH with S30Y, G31V, M83T
VL: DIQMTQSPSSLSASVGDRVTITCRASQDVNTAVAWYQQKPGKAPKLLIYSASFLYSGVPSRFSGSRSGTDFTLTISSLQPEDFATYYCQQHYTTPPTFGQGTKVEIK
notes: also called Antibody 8
B8: 2265-F06 (antibody, V domains shown)
VH: B3 VH with G31Y, S32P, V101I, Y102L
VL: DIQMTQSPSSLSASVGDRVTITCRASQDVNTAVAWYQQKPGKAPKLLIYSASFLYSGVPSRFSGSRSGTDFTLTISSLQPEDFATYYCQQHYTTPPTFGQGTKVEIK
notes: also called Antibody 2
B9: 2265-A06 (antibody, V domains shown)
VH: B3 VH with S30Y, G31R, Y102P
VL: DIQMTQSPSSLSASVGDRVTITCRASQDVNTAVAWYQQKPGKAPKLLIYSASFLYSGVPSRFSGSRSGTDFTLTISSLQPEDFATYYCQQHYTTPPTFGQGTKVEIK
notes: also called Antibody 13
B10: 2265-F05 (antibody, V domains shown)
VH: B3 VH with S30I, G31A, S32P, Y102N, Q103A
VL: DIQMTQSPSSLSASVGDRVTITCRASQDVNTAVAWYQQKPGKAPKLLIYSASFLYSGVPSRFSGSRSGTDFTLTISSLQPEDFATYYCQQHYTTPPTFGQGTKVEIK
notes: also called Antibody 3
B11: 2265-D11 (antibody, V domains shown)
VH: B3 VH with S32P, G55A, V101I
VL: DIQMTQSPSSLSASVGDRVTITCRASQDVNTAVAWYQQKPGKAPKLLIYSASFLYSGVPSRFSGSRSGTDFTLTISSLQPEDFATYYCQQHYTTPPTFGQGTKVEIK
notes: also called Antibody 9
B12: 2265-F03 (antibody, V domains shown)
VH: B3 VH with S30R, S32P, N52S, G55A, Y100F, Y102Q, Q103S
VL: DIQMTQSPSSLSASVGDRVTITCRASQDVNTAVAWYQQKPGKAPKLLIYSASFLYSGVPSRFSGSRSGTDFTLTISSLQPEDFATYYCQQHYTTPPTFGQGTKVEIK
notes: also called Antibody 7
B13: 2265-D05 (antibody, V domains shown)
VH: B3 VH with S32P, G55A, T69A, Y100F, Q103A
VL: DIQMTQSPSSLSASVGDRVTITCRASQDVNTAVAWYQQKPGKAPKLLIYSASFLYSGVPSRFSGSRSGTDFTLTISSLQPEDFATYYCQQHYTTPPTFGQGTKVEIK
notes: also called Antibody 10
B14: 2265-C02 (antibody, V domains shown)
VH: B3 VH with S30G, G31V, D62G, V101I, Q103S
VL: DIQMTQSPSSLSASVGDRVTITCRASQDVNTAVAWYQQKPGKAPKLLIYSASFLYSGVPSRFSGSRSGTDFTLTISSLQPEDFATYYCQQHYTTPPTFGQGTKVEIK
notes: also called Antibody 12
B15: 2265-C03 (antibody, V domains shown)
VH: B3 VH with S25P, G31V, S32P, Y102P
VL: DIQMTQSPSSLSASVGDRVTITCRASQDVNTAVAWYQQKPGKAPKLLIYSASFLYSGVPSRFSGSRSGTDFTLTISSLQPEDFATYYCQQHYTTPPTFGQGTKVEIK
notes: also called Antibody 11

In the first assay the target is cynomolgus BCMA on cells (cynomolgus monkey, UniProt Q02223 1-184 (human entry)). Nature of the assay: FACS, 293T-cynoBCMA cells. Here is the method: (§1) Variants for which sufficient protein was purified in secondary screening were tested in a fluorescence-activated cell sorting (FACS) cell-binding assay. […] 6-12 point dilutions of anti-BCMA variants starting from concentrations of about 100-200 nM antibody were dispensed into each well using a BioMekFX (Beckman Coulter). Cells were then incubated on ice for 1 hr, washed with FACS buffer and incubated for 1 hr on ice with […] FACS buffer containing 2.5 μg/ml Alexa647-conjugated Goat Anti-Human IgG dispensed using BioMekFX (Beckman Coulter). Cells were then washed 2× with FACS buffer and fixed for 10 minutes in […] PBS with 2% paraformaldehyde (PFA) prior to fluorescence detection. Samples were acquired using a Beckton Dickinson LSRII FACS. Geometric Mean Fluorescence Intensity of BCMA antibody binding was analyzed using FlowJo® software (Tree Star, Inc.).
cynomolgus BCMA on cells, sequence (Q02223 other isoform, or with tags, fused parts or gaps): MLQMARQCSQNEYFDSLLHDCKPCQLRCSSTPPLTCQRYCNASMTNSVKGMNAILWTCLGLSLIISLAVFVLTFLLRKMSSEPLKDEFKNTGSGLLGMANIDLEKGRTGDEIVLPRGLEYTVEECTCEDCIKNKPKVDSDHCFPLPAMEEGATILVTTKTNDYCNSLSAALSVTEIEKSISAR
A general note: Flow cytometry measures light scatter and fluorescence of single cells or particles in a stream.
B1 showed a Bmax of 17800 MFI and a Kd of 8.87 nM.
The like results for B2 were, in that order, 24400 MFI and 7.33 nM.
The like results for B3 were, in that order, 18500 MFI and 10.1 nM.
In turn, B4 came in with a Bmax of 23800 MFI and a Kd of 6.2 nM.
As to B5, the Bmax came to 26700 MFI and the Kd was found to be 5.1 nM.
In the case of B6, the Bmax amounted to 18500 MFI and binding was put at a Kd of 3 nM.
Molecule B7 showed a Bmax of 21800 MFI and a Kd of 5 nM.
The like results for B8 were, in that order, 25800 MFI and 3.4 nM.
The like results for B9 were, in that order, 22100 MFI and 3.8 nM.
Consider B10, for which the Bmax worked out at 26600 MFI and the affinity, expressed as Kd, was 3.4 nM.
The like results for B11 were, in that order, 21300 MFI and 3.8 nM.
In the case of B12, the Bmax was 17400 MFI and the Kd was found to be 2.5 nM.
As for B13, the Bmax came to 21900 MFI and the Kd came out at 2.5 nM.
B14: the Bmax worked out at 24100 MFI and binding was characterised by a dissociation constant (Kd) of 4.9 nM.

The target of another assay is T1, human BCMA on cells. Nature of the assay: FACS, NCI-H929 cells. Here is the method: as §1
B1 gave a Bmax of 21100 MFI and a Kd of 33 nM.
On to B2, for which the Bmax stood at 25800 MFI and the Kd is 65.8 nM.
The like results for B4 were, in that order, 11700 MFI and 5.2 nM.
B5 yielded a Bmax of 11600 MFI and a Kd of 4.5 nM.
The like results for B6 were, in that order, 12700 MFI and 10.3 nM.
The like results for B15 were, in that order, 12500 MFI and 5.3 nM.
In turn, B7 yielded a Bmax of 12200 MFI and a Kd of 4.5 nM.
The like results for B8 were, in that order, 11400 MFI and 4.5 nM.
Take B9: the Bmax amounted to 11100 MFI and binding was characterised by a dissociation constant (Kd) of 5.7 nM.
B10 had a Bmax of 11900 MFI and a Kd of 6.2 nM.
B11 came in with a Bmax of 10900 MFI and a Kd of 4 nM.
Take B12: the Bmax came to 11200 MFI and the dissociation constant (Kd) was determined as 4.3 nM.
The like results for B13 were, in that order, 9620 MFI and 4.4 nM.
The like results for B14 were, in that order, 11500 MFI and 4.4 nM.

For the next assay, the target named is T3, cyno BCMA-Fc (cynomolgus monkey, UniProt Q02223 1-54 (human entry)).
T3 construct: Custom protein production; also called cynomolgus BCMA-Fc; not shown: Fc part not described
Nature of the assay: SPR Biacore, antibody captured, 25 C. The procedure:
(§2) Anti-Fab or anti-Fc polyclonal antibodies were immobilized onto a CM5 chip (GE Life Sciences) using amine coupling chemistry (from Amine Coupling Kit, GE Life Sciences). The immobilization steps were carried out at a flow rate of 25 μL/min in 1×HBS-EP+ buffer (GE Life Sciences; 10× Stock diluted before use). The sensor surfaces were activated for 7 min with a mixture of NHS (0.05 M) and EDC (0.2 M). The anti-Fab or anti-Fc antibodies were injected over all 4 flow cells at a concentration of 25 μg/ml in 10 mM sodium acetate, pH 4.5, for 7 min. Ethanolamine (1 M, pH 8.5) was injected for 7 min to block any remaining activated groups.
(§3) Off-rate and kinetic binding experiments were performed at 25° C. using 1×HBS-EP+ buffer. […] After capturing ligand (antibody) on the anti-Fab or anti-Fc surface, the analyte (human BCMA-Fc, cyno BCMA-Fc, or human BCMA from R&D Systems, custom protein production, or Sigma Aldrich, respectively) was bound for 180 seconds, followed by a 600 second dissociation phase at a flow rate of 50 μL/min. Between each ligand capture and analyte binding cycle, regeneration was carried out using 2 injections of 10 mM glycine pH 2.0 for 30 seconds at 30 μL/min, followed by a 30 second buffer wash step.
(§4) The data was fit with the Biacore T200 Evaluation software, using a 1-1 Langmuir binding model. KD (affinity, nM) was determined as a ratio of the kinetic rate constants calculated from the fits of the association and dissociation phases.
(In general: In SPR one partner is held on a chip, and binding of the other changes the refractive index at the surface.)
The molecule B4 yielded a dissociation constant Kd of 3.68 nM, a koff of 0.00116 s⁻¹ and a kon of 315000 M⁻¹ s⁻¹.
The like results for B5 were, in that order, 3.67 nM, 0.0013 s⁻¹ and 354000 M⁻¹ s⁻¹.
As to B6, the Kd amounted to 6.43 nM, the koff was found to be 0.00173 s⁻¹ and the on-rate constant (kon) came to 270000 M⁻¹ s⁻¹.
B15 gave a Kd of 5.83 nM, a koff of 0.00177 s⁻¹ and a kon of 304000 M⁻¹ s⁻¹.
Consider B7, for which binding was characterised by a dissociation constant (Kd) of 5.75 nM, the koff was determined as 0.00153 s⁻¹ and the kon is 266000 M⁻¹ s⁻¹.
The like results for B8 were, in that order, 3.84 nM, 0.00133 s⁻¹ and 347000 M⁻¹ s⁻¹.
The like results for B9 were, in that order, 6.24 nM, 0.00156 s⁻¹ and 249000 M⁻¹ s⁻¹.
Regarding B10, the Kd is 4.39 nM, the koff was found to be 0.00114 s⁻¹ and the kon is 260000 M⁻¹ s⁻¹.
The like results for B11 were, in that order, 3.24 nM, 0.00116 s⁻¹ and 358000 M⁻¹ s⁻¹.
The like results for B12 were, in that order, 7.9 nM, 0.00274 s⁻¹ and 346000 M⁻¹ s⁻¹.
B13 returned a Kd of 4.53 nM, a koff of 0.00147 s⁻¹ and a kon of 325000 M⁻¹ s⁻¹.
As to B14, the Kd worked out at 4.22 nM, the koff was 0.00137 s⁻¹ and the kon was determined as 325000 M⁻¹ s⁻¹.

The target in the next assay is T2, human BCMA-Fc. Nature of the assay: SPR Biacore, antibody captured, 25 C. The procedure:
as §2, §3, §4
Regarding B3, binding was characterised by a dissociation constant (Kd) of 1.63 nM, the koff was found to be 0.000745 s⁻¹ and the kon was 457000 M⁻¹ s⁻¹.
The molecule B4 came in with a Kd of 0.499 nM, a koff of 0.000293 s⁻¹ and a kon of 587000 M⁻¹ s⁻¹.
The like results for B5 were, in that order, 0.546 nM, 0.000385 s⁻¹ and 705000 M⁻¹ s⁻¹.
The like results for B6 were, in that order, 0.589 nM, 0.000318 s⁻¹ and 539000 M⁻¹ s⁻¹.
The like results for B15 were, in that order, 0.724 nM, 0.000425 s⁻¹ and 587000 M⁻¹ s⁻¹.
Molecule B7 yielded a Kd of 0.67 nM, a koff of 0.000383 s⁻¹ and a kon of 571000 M⁻¹ s⁻¹.
The like results for B8 were, in that order, 0.276 nM, 0.000193 s⁻¹ and 699000 M⁻¹ s⁻¹.
The molecule B9 came in with a Kd of 0.789 nM, a koff of 0.000392 s⁻¹ and an on-rate constant (kon) of 497000 M⁻¹ s⁻¹.
The like results for B10 were, in that order, 0.469 nM, 0.00024 s⁻¹ and 512000 M⁻¹ s⁻¹.
Molecule B11 gave a Kd of 0.701 nM, a koff of 0.000537 s⁻¹ and a kon of 766000 M⁻¹ s⁻¹.
In turn, B12 returned a Kd of 0.633 nM, a koff of 0.000474 s⁻¹ and a kon of 749000 M⁻¹ s⁻¹.
In the case of B13, the dissociation constant (Kd) came out at 0.702 nM, the koff was 0.000485 s⁻¹ and the kon is 691000 M⁻¹ s⁻¹.
Molecule B14 showed a Kd of 0.758 nM, a koff of 0.000567 s⁻¹ and an association rate constant (kon) of 747000 M⁻¹ s⁻¹.

A word on the Kd: it is the concentration at which binding is half-saturated. A higher Kd goes with weaker binding. One may read the koff as the first-order rate constant of dissociation. Higher therefore signals fast dissociation. For orientation: kon means a measure of how fast the partners come together.
